Data taken from the nanobody polyreactivity screen of Harvey et al. (2022).

Test: yeast display, Sf9 membrane polyspecificity reagent, FACS + sequencing; frameworks hold sequencing errors
In short: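 Sorting gates, low and high (top ~1%), were placed on anti-HA fluorescence to track expression and on streptavidin fluorescence to track reagent binding. A clone's polyreactivity label is taken from the gate it came out of. The reagent was 10% biotinylated, detergent-solubilized Sf9 membrane, applied for 1 hour at 4 °C to galactose-induced yeast display cells.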

Sequence	polyreactivity (PSR sort gate)
QVQLVESGGGLVQAGGTLRLSCAASGITFSDYTMGWYRQAPGKERELVDAISTSGGSTYYADSVKGRFTISRDNAKNTVYLQMNSQKPEDTAVYYCAAISAVTLRGYYYWGQRTQVTVSS	high polyreactivity
QVQLVESGGGLVQAGGTLRLSCAASGLTFYRYAMGWYRQAPGKERELVATIRSGDGTYYADSVKGRFTISRDNAKNTVYLQMNSLKPEDTAVYYCAAKKVYRVYGRYEYWGQGTQVTVSS	high polyreactivity
QVQLVESGGGLVQAGGTLRLSCAASGRIFGVYAMGWSRQAPGKERELVAAIRWSGGSTYYADSVKGRFTISRDNAKTTVYLQMNSLKPEDTAVYYCAAVGGVTRGNQYVRYGYWGQGTQVTVSS	high polyreactivity
QVQLVESGGGLVQAGGTLRLSCAASGRIFGYNDMGWYRQAPGKERELVAAINRTGGSTYYADSVKGRFTISRDNAKNTVYLQMNSLKPEDTAVYYCNADARTKWVQTHTDFITDYDYWGQGTQVTVSS	low polyreactivity
QVQLVESGGGLVQAGGTLRLSCAASGRIFVYYTMGWYRQAPGKERELVAAITCSGGSTYYADTVKGRFTISRDNEKNPVYLQMNSLKPEDTAVYYCAADGYADYYGWGYWTEYDYWGQGTQVTVSS	low polyreactivity
QVQLVESGGGLVQAGGTLRLSCAASGRTFPLYAMGWYRQAPGKERELVAAISSSGGNTYYADSVKGRFTISRDNAKNTVYLQMNSLKPEDTAVYYCNADVSTNSDRLQLDYWGQGTQVTVSS	low polyreactivity
QVQLVESGGGLVQAGGTLRLSCAASGSIFGNYAMGWDRQAPGKERELVAGISKSGGRTYYADSVKGRFTISRDNAKNTVYLQMNSLKPEDTAVYYCNALVTRYQSLDRLGDYWGQGTQVTVSS	high polyreactivity
QVQLVESGGGLVQAGGTLRLSCAASGSIFRYYAMGWYRQAPGKERELVASSSRRGGSTYYADSVKGRFTISRDIANITVYGQMNSLKPEDTAVYYCAAYSYVYGERYYYWGQGSQVTVSS	high polyreactivity
QVQLVESGGGLVQAGGTLRLSCAASGSTFGPNAMGWYRQAPGKEREVVATIRGSGATTYYADSVKGRFTISRDNAKNTVYLQMNSLKPEDSAVYYCDTAYFSGWYNRYGRATSYDYWGQGTEVTVSS	high polyreactivity
QVQLVESGGGLVQAGGTLRLSCAASGSTFIGNAMGWYRQAPGKVRELVATITSGDSKYADSVKGRFTISRDNAKNTVYLQMNSLKPEDTAVYYCNADPWDIGSTFELDYWGQGTQVTVSS	low polyreactivity
QVQLVESGGGLVQAGGTLRLSCAASGSTFPKYGMGWYRQAPGKEREFVARINWNGGGTYYADSVKGRFTISRDNAKNTVYLHMNSLKPEDTAVYYCNARKRGARFILGYDYWGQGTQVTVSS	low polyreactivity
QVQLVESGGGLVQAGGTLRLSCAASGSTFPPYAMGWYRQAPGKERELVAAISWRGSSTYYADSVKGRFTISRDNAKNTVYLQMNSLKPEDTAVYYCNADGGGSYWLYEHGFARDYWGQGTQVTVSS	high polyreactivity
QVQLVESGGGLVQAGGTLRLSCAASGSTFRWYAMGWYRQAPGKERELVAAITSSGSTYYADSVKGRFTISRDNAKNTVYLQMNSLKPEDTAVYYCAARAKGYWNTYEHDSWGQGIQVTVSS	low polyreactivity
QVQLVESGGGLVQAGGTLRLSCAASGSTFVRNAMGWYRQPPGKERELVAAISVDGSSTYYADSVKGRFTISRDNAKNTVYLQMNSLKPEDTAVYYCNADWDYRDFYDITYDYWGQGTQVTVSS	low polyreactivity
QVQLVESGGGLVQAGGTLRLSCAASGYIFPAYVMGWYRQAPGKERELVAAITSGGGTYYADSVKGRFTISRDNAKYTVYLQMNSLKPEDTAVYYCAARYTQRPRRNYWGQGTQVTVSS	high polyreactivity
QVQLVESGGGLVQAGGTLRLSCAASGYTFVVYAMGWYRQAPGKERELVASISRSGGSTYYADSVKGRFTISRDNAKNTVYLQMNSLKPEDTAVYYCAADVWRVQHRGYNYWGQGTQVTVSS	high polyreactivity
QVQLVESGGGLVQAGGTLRLSCAATGRTFAPNSMGWYRHAPGKERELFAAISWSGTSTYYADSVKGRFTISRDNAKNTVYLQMNSLKPEDTAVYYCAADLEGRVGSPWTYDYWGQGTQVTVSS	low polyreactivity
QVQLVESGGGLVQAGGTLRLSCAATGSIFPGNAMGWYRPAPGKERELVAAISGRGGSTYYADSVKGRFTISRDNAKNTVYVQMNSLKPEDTAVYYCAAAPVYRPRDSYDKHRHYYWGQCTQVTVSS	high polyreactivity
QVQLVESGGGLVQAGGTLRLSCAATGSTFNINAMGWYRQAPGKERELFAAITRGGTNYADSVKGRFTISRDNAKNTVYLQMNSLKPEDTAVYYCAARGTGGSVKVTSLQQGGYWGQGTQVTVSS	high polyreactivity
QVQLVESGGGLVQAGGTLRVSCAASGLIFYGNVMGWYRQAPGKERELVAGISRNSGSTYYADSVKGRFTISRDNANNTVYLQMNSLKPEDTAVYYCAALKFEAWAGEDYWGPGTQVTVSS	low polyreactivity
QVQLVESGGGLVQAGGTLRVSCAASGSTFTTNAMGWSRQAPGTERELFATISGGGSTYYADSVQGRFTISRDNAKNTVYLQMNSLKPDDTAVYYCATDVQVPGIGRSVYAYEYLGQGTQVTVSS	low polyreactivity
QVQLVESGGGLVQAGRCLRLSCAASGITFVPNAMGWSRQAPGKERELVAAISSGGTYADSVKGRFTISRDNAKNTVYLQMNSLKPEDTALYYCNADTDYIRWIYGYWGQVTQVTVSS	low polyreactivity
QVQLVESGGGLVQAGRILRLSCAASGYIFRRYAMGWYRQAPGKERELVAVISSRGGSTYYADSVKGRFTISRDNATKTVYLQMNSLKPEDTAVYYCAARSGSRATFLSDYWGQGNQVTVSS	high polyreactivity
QVQLVESGGGLVQAGRSHRLTCAASGSTDSNAMGWYRQAPGKERELVAAISGTGSRTYYADSVKGRFTISRDNAKNSVYLEMNSLKPEDTAVYYCAASPDVSFRRFSLVVSGDYWGQGNQVTVSS	high polyreactivity
QVQLVESGGGLVQAGRSLRISRAASGSIFYKNVMGWYRQAPGKERELVAAITSGGSTYYADSVKGRFTISRDNAKNTVYFQMNSVYPEYSAVYYWAAGFGRNPVSRYYWGQGTQVTVSS	high polyreactivity
QVQLVESGGGLVQAGRSLRLICAASGSIFRKYAMCWYRQAPVKESELVAAINYSGGNTYYADSVKGRFTISRDNSKNTVYLQMNSLKPEDTAVYFCAADSVRHYWWAYYYWGQVTQVTVSS	low polyreactivity
QVQLVESGGGLVQAGRSLRLSCAASGFTFSWYTMGWYRQAPGKERELVAAISSSGGNTYYADSVKGRFTISRDNAKNTVYLQMNSLKPEDNAVYYCVARFGSYGYYYWGQGTQVTVSS	high polyreactivity
QVQLVESGGGLVQAGRSLRLSCAASGFTLTPYAMGWYRQAPGKERELVARISDSGDSTYYADSVKGRFTMSRDNAKNTVYLQMNRLKPEDTAVYYCATDWNAGIDYYRFYADEYNYWGQGSQVTVSS	low polyreactivity
QVQLVESGGGLVQAGRSLRLSCAASGINFAGYAKGWYRQAPGKERELVAAISRGGSTYYADSVKGRFTISRDNAKNTVYFQMNSLIPEDTAVYYCNTYYQQGYFTYTGWNYNYWGQGTQVTVST	high polyreactivity
QVQLVESGGGLVQAGRSLRLSCAASGITFSRNDMGWYRQAPGKEMQLVAAISRSGGRTYYADSVKGRFTLSRDNAKNTVYLQMNCLNPEDTAVYYCNRDIGGTSVLDDYWGQGTQVTVSS	low polyreactivity
